# Results taken from PMC5031503.
# Where a chain is given by its changes, count along the chain named. Numbers in names are those of the source.
# B1: GFP-Lpd (Lamellipodin, wild type), Q70E73 Y366F; Y426F; Y456F; Y466F; Y481F; Y510F (protein)
# chain: MEQLSDEEIDHGAEEDSDKEDQDLDKMFGAWLGELDKLTQSLDSDKPMEPVKRSPLRQETNMANFSYRFSIYNLNEALNQGETVDLDALMADLCSIEQELSSIGSGNSKRQITETKATQKLPVSRHTLKHGTLKGLSSSSNRIAKPSHASYSLDDVTAQLEQASLSMDEAAQQSVLEDTKPLVTNQHRRTASAGTVSDAEVHSISNSSHSSITSAASSMDSLDIDKVTRPQELDLTHQGQPITEEEQAAKLKAEKIRVALEKIKEAQVKKLVIRVHMSDDSSKTMMVDERQTVRQVLDNLMDKSHCGYSLDWSLVETVSELQMERIFEDHENLVENLLNWTRDSQNKLIFMERIEKYALFKNPQNFLLGKKETAEMADRNKEVLLEECFCGSSVTVPEIEGVLWLKDDGKKSWKKRYFLLRASGIFYVPKGKAKVSRDLVCFLQLDHVNVYYGQDFRNKYKAPTDFCLVLKHPQIQKKSQFIKYLCCDDVRTLHQWVNGIRIAKYGKQLFMNYQEALKRTESAYDWTSLSSSSIKSGSSSSSIPESQSNHSNQSDSGVSDTQPAGHVRSQSIVSSVFSEAWKRGTQLEESSKARMESMNRPYTSLVPPLSPQPKIVTPYTASQPSPPLPPPPPPPPPPPPPPPPPPPPLPSQSAPSAGSAAPMFVKYSTITRLQNASQHSGALFKPPTPPVMQSQSVKPQILVPPNGVVPPPPPPPPPPTPGSAMAQLKPAPCAPSLPQFSAPPPPLKIHQVQHITQVAPPTPPPPPPIPAPLPPQAPPKPLVTIPAPTSTKTVAPVVTQAAPPTPTPPVPPAKKQPAFPASYIPPSPPTPPVPVPPPTLPKQQSFCAKPPPSPLSPVPSVVKQIASQFPPPPTPPAMESQPLKPVPANVAPQSPPAVKAKPKWQPSSIPVPSPDFPPPPPESSLVFPPPPPSPVPAPPPPPPPTASPTPDKSGSPGKKTSKTSSPGGKKPPPTPQRNSSIKSSSGAEHPEPKRPSVDSLVSKFTPPAESGSPSKETLPPPAAPPKPGKLNLSGVNLPGVLQQGCVSAKAPVLSGRGKDSVVEFPSPPSDSDFPPPPPETELPLPPIEIPAVFSGNTSPKVAVVNPQPQQWSKMSVKKAPPPTRPKRNDSTRLTQAEISEQPTMATVVPQVPTSPKSSLSVQPGFLADLNRTLQRKSITRHGSLSSRMSRAEPTATMDDMALPPPPPELLSDQQKAGYGGSHISGYATLRRGPPPAPPKRDQNTKLSRDW
# B2: GFP-Lpd (Lamellipodin, wild type), Q70E73 Y366F; Y426F; Y456F; Y466F; Y481F; Y510F; Y513F; Y1226F (protein)
# chain: B1 chain with Y513F, Y1226F
# B3: GFP-Lpd (Lamellipodin, wild type), Q70E73 Y426F; Y456F; Y513F; Y1226F (protein)
# chain: B1 chain with F366Y, F466Y, F481Y, F510Y, Y513F, Y1226F
# Target: Myc-tagged Scar/WAVE complex (Myc-Pir121, Myc-Nap1, Myc-Abi1d, Myc-WAVE2), Q96F07;Q9Y2A7;Q9Y6W5
# Assay: co-immunoprecipitation, quantified western blot band intensities
# Conditions: chain shown with the change; HEK293FT cells; n=4; Scar/WAVE2 normalized against the immunoprecipitated Lpd; parent: est. 100; read off a plot
# Myc-tagged Scar/WAVE complex (Myc-Pir121, Myc-Nap1, Myc-Abi1d, Myc-WAVE2), Q96F07;Q9Y2A7;Q9Y6W5, sequence (chain, as listed by the source, chain 1 of 3): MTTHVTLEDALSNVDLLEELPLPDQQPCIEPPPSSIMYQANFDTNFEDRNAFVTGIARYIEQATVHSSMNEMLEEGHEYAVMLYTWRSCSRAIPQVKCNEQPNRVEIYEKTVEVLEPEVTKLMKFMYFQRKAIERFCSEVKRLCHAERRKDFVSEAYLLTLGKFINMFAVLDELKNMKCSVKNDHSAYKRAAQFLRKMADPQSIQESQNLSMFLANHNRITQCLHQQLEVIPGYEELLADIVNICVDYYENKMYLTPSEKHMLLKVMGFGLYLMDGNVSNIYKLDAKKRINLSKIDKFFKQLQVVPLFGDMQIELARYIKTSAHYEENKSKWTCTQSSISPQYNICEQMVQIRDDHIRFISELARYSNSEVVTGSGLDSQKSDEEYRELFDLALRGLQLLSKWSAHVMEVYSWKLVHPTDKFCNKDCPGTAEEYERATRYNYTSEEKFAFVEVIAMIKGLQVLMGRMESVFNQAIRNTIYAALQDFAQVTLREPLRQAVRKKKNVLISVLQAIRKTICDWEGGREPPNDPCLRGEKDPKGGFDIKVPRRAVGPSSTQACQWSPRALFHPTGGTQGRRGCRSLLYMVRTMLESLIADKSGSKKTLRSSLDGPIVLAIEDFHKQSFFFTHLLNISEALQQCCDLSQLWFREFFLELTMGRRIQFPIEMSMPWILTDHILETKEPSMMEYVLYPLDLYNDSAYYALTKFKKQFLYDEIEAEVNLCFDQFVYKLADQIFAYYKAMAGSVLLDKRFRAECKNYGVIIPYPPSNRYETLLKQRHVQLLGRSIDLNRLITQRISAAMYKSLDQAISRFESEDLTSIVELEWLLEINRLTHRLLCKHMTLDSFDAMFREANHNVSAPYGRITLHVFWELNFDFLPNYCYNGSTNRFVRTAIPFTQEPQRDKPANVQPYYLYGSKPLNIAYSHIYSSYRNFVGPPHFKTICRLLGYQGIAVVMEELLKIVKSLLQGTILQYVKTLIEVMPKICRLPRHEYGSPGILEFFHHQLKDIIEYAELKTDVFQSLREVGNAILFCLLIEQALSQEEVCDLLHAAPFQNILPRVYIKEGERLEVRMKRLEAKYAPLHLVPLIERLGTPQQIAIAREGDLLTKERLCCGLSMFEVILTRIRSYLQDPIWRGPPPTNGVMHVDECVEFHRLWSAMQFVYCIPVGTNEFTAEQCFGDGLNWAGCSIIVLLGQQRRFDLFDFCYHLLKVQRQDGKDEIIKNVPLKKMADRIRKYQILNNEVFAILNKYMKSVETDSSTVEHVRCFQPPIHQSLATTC
# Myc-tagged Scar/WAVE complex (Myc-Pir121, Myc-Nap1, Myc-Abi1d, Myc-WAVE2), Q96F07;Q9Y2A7;Q9Y6W5, sequence (chain, as listed by the source, chain 2 of 3): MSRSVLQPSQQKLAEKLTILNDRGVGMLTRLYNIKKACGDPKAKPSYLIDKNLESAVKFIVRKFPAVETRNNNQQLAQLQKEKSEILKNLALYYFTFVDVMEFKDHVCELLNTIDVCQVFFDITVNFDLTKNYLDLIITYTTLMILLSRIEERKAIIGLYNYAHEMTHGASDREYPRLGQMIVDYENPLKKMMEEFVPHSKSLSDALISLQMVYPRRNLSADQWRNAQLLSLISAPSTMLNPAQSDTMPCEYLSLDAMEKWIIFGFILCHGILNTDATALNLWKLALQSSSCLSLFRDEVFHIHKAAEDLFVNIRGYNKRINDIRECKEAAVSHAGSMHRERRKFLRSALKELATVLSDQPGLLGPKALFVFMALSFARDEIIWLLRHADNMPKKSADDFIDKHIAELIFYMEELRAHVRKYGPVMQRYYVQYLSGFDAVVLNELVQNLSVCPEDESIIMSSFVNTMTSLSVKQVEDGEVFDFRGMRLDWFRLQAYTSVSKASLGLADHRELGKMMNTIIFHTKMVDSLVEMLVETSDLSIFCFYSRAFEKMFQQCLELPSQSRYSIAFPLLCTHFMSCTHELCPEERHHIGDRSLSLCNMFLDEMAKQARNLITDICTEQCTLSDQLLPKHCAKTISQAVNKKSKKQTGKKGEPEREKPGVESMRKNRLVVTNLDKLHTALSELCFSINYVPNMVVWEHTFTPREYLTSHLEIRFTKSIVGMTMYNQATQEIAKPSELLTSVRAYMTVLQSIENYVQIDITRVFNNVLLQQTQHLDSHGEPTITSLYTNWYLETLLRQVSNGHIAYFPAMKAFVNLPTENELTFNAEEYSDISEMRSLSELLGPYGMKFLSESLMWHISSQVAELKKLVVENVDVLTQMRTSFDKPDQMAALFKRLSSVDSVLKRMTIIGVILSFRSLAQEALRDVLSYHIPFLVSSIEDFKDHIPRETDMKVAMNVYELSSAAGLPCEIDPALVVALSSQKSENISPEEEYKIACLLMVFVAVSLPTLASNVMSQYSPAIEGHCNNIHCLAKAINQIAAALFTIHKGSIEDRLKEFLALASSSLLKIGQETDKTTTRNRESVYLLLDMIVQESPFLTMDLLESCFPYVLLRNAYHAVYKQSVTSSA
# Myc-tagged Scar/WAVE complex (Myc-Pir121, Myc-Nap1, Myc-Abi1d, Myc-WAVE2), Q96F07;Q9Y2A7;Q9Y6W5, sequence (chain, as listed by the source, chain 3 of 3): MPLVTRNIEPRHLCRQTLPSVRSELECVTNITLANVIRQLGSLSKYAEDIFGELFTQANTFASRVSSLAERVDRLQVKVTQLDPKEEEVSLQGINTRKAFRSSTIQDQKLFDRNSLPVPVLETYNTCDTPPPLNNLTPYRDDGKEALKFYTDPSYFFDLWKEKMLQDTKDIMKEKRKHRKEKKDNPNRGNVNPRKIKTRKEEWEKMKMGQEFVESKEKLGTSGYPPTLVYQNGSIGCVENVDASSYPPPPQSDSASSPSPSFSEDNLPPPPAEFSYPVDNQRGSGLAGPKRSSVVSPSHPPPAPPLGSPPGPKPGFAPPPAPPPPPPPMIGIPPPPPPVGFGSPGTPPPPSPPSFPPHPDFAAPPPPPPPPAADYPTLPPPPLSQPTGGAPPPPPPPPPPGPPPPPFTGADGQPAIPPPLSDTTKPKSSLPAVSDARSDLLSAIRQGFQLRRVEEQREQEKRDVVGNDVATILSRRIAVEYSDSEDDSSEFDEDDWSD
row,Binder,percent of parent (% co-IP Lpd-WAVE2)
1,B1,39
2,B2,31
3,B3,41
